Values belong to the molecule of their own block, whether it stands above or below them. Non-standard residues stand in square brackets, D forms with d. Residues, ends and D or L forms follow the SMILES beside them. No end group written: not given here. *: point of attachment. Cascade Yellow = fluorophore from Cascade Yellow succinimidyl ester, attached to the Dab or Dap side chain; pY = N[C@@H](Cc1ccc(OP(=O)(O)O)cc1)C(=O)O; NBD = O=[N+]([O-])c1ccc(*)c2nonc12; Dab = NCC[C@H](N)C(=O)O; Dap = NC[C@H](N)C(=O)O
How the values were obtained:
Src [1] = target: T1, Src (Homo sapiens, UniProt P12931); test: Src kinase-catalyzed phosphorylation of self-reporting fluorophore-peptides, fluorescence change (no detection module); conditions: for Phosphorylation-induced fluorescence change: Src, no detection module; for Fluorescence change (fold): upon phosphorylation
Description: Tyrosine kinase-catalyzed phosphorylation was initiated by addition of 15 μL of 10 mM ATP to the following solution: 3 μL 0.1 mM peptide stock solution, 3.8 μL 200 mM MgCl2, 1.5 μL 100 mM MnCl2, 23.2 μL H2O, 6 μL 50 mM DTT, 15 μL 0.1 mg/mL BSA, and 7.5 μL 0.03 μM Src in 75 μL Tris buffer solution (pH 7.2).

GST-Lck-SH2 = target: T2, GST-Lck-SH2 (Homo sapiens, UniProt P06239); test: Fluorescence change as a function of Lck-SH2 concentration (Src-catalyzed phosphorylation); assay type: biochemical
T2 construct: made in house; host or cells: E. coli
From the text: As is evident from Table 1, the dapoxyl fluorophore positioned off the +3 and +4 sites on the peptide substrate (Dap-5 and Dab-5) produce the largest changes in fluorescent behavior. Two peptides (13 and 14, FIG. 4) were examined in greater detail. Both peptides were resynthesized on the Rink resin and purified by HPLC. In addition, the phosphotyrosine version of 13 was enzymatically prepared. […] If the SH2 domain is responsible for the fluorescence change induced by Src kinase-catalyzed phosphorylation, then the Lck SH2 domain concentration should influence the observed fluorescence response. […] The reactions were initiated by the addition of ATP. When only buffer was added to “initiate” the reaction (i.e. no ATP), the fluorescence of the mixture remained unperturbed. Furthermore, in the absence of Lck SH2 domain, ATP addition to initiate the reaction furnished an exceedingly modest change in fluorescence intensity (<5%). By contrast, increasing concentrations of SH2 domain produced increasing enhancements in fluorescence intensity. Above an Lck SH2 concentration of 16 μM, the change in fluorescence intensity began to level off, which is in keeping with the notion that the interaction between phosphopeptide and Lck SH2 domain was approaching saturation. […] This appears to be a consequence of the —NH(CH2)2SH tail that is present on the library members (but not on the amide-capped peptides, as a consequence of the respective synthesis methods used).
(§1) The fluorescence change was monitored as a function of time. Control assays in the absence of Lck-SH2 were also performed.
The assay protocol described above was used to assess the effect of GST-Lck-SH2 concentration on the observed fluorescence associated with the phosphorylation of pure peptide 13 (30 nM Src) and peptide 14 (15 nM Src).

PTP1B = target: T3, PTP1B (Homo sapiens, UniProt P18031); test: Effect of PTP1B on the fluorescence change; assay type: biochemical; conditions: peptide substrate 4 μM; GST-Lck-SH2 22 μM
T3 construct: purchased Invitrogen
T3 sequence (P18031 1-435): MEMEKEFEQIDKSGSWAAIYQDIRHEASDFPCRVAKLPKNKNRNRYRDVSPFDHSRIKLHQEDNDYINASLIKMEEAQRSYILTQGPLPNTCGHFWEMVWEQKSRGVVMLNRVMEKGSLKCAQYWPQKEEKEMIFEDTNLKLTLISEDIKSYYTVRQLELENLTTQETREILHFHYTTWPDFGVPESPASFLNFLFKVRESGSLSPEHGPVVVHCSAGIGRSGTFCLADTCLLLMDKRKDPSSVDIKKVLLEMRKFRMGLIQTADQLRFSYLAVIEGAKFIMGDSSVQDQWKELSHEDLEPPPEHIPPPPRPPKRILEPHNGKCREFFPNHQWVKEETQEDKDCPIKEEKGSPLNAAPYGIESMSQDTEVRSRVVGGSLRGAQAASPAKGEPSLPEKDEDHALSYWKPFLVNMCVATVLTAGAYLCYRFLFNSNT

Src [2] = target: T1, Src; test: Assay of library: Src kinase-catalyzed phosphorylation of fluorophore-labeled peptides in presence of Lck-SH2, fluorescence change; assay type: biochemical; design: purchased Invitrogen; conditions: fluorophore attachment site +4; —NH2 derivative (in parentheses, amide-capped); Lck-SH2 present
Description: The library was prepared via parallel synthesis using a previously described disulfide-linked Tentagel resin (see “Synthesis of Peptide Library” below). Following solid phase synthesis of the primary sequence, the side chain amine of the Dap or Dab residue was selectively deprotected and subsequently modified with the appropriate activated forms of 5, 6, and 7. The remaining protecting groups on the peptide were then removed with trifluoroacetic acid (TFA), the peptide-resin extensively washed to eliminate the last traces of TFA, and the peptide cleaved from the resin with assay buffer (which contained dithiothreitol) and purified by HPLC. The fluorescent response of the individual library members to Src catalysis in the presence of Lck SH2 was subsequently examined in detail (see “Assay of Library” below).
as §1

Src [3] = target: T1, Src; test: Vmax and Km of Src kinase-catalyzed phosphorylation at fixed Lck-SH2 (20 μM); assay type: biochemical; design: purchased Invitrogen; conditions: varying peptide
Description: as §1
The final Src concentration was 30 nM for peptide 13 and 15 nM for peptide 14.

Lck SH2 domain = target: T4, Lck SH2 domain (Homo sapiens, UniProt P06239); test: Effect of competing Lck-SH2 domain ligand on the fluorescence change; assay type: binding; conditions: ligand 50 μM, peptide substrate 4 μM, GST-Lck-SH2 22 μM
T4 construct: made in house; host or cells: E. coli
From the text: As is evident from Table 1, the dapoxyl fluorophore positioned off the +3 and +4 sites on the peptide substrate (Dap-5 and Dab-5) produce the largest changes in fluorescent behavior. Two peptides (13 and 14, FIG. 4) were examined in greater detail. Both peptides were resynthesized on the Rink resin and purified by HPLC. In addition, the phosphotyrosine version of 13 was enzymatically prepared. […] If the SH2 domain is responsible for the fluorescence change induced by Src kinase-catalyzed phosphorylation, then the Lck SH2 domain concentration should influence the observed fluorescence response. […] The reactions were initiated by the addition of ATP. When only buffer was added to “initiate” the reaction (i.e. no ATP), the fluorescence of the mixture remained unperturbed. Furthermore, in the absence of Lck SH2 domain, ATP addition to initiate the reaction furnished an exceedingly modest change in fluorescence intensity (<5%). By contrast, increasing concentrations of SH2 domain produced increasing enhancements in fluorescence intensity. Above an Lck SH2 concentration of 16 μM, the change in fluorescence intensity began to level off, which is in keeping with the notion that the interaction between phosphopeptide and Lck SH2 domain was approaching saturation. […]

[4] = fluorophore on Dap at position Y+3, λex/λem (nm) (first pair listed for the fluorophore)
[5] = fluorophore on Dab at position Y−2, λex/λem (nm) (first pair listed for the fluorophore)

T2 sequence (P06239 127-224 limits assumed): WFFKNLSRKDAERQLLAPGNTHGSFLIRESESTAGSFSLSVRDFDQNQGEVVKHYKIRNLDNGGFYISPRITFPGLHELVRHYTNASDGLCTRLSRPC
T4 sequence (P06239 127-224 limits assumed): as above

Phosphorylation-induced fluorescence change (Src [1]): smaller fluorescence response
Molecule: 27: corresponding peptide containing Cascade Yellow positioned at Y+3, SEQ ID NO:16 (EEEIYGE[Dap](Cascade Yellow)EA) [Peptide 27]

change in fluorescence intensity on ATP addition (GST-Lck-SH2; absence of Lck SH2 domain, peptide 16 μM): < 5%
Fluorescence Increase (GST-Lck-SH2; peptide 16 μM, Lck-SH2 0 μM, 30 nM Src): 1.07 fold change
Fluorescence Increase (GST-Lck-SH2; peptide 16 μM, Lck-SH2 4 μM, 30 nM Src): 1.24 fold change
Fluorescence Increase (GST-Lck-SH2; peptide 16 μM, Lck-SH2 8 μM, 30 nM Src): 1.33 fold change
Fluorescence Increase (GST-Lck-SH2; peptide 16 μM, Lck-SH2 12 μM, 30 nM Src): 1.41 fold change
Fluorescence Increase (GST-Lck-SH2; peptide 16 μM, Lck-SH2 16 μM, 30 nM Src): 1.52 fold change
Fluorescence Increase (GST-Lck-SH2; peptide 16 μM, Lck-SH2 20 μM, 30 nM Src): 1.56 fold change
Fluorescence Increase (GST-Lck-SH2; peptide 16 μM, Lck-SH2 26 μM, 30 nM Src): 1.61 fold change
Fluorescence Increase (GST-Lck-SH2; peptide 16 μM, Lck-SH2 32 μM, 30 nM Src): 1.59 fold change
fluorescence change when PTP1B is added at the same time as ATP (PTP1B): blocked the fluorescence change
Molecule: CC[C@H](C)[C@H](NC(=O)[C@H](CCC(=O)O)NC(=O)[C@H](CNc1ccc([N+](=O)[O-])c2nonc12)NC(=O)[C@H](Cc1ccc(O)cc1)NC(=O)[C@@H](NC(=O)[C@H](CCC(=O)O)NC(=O)[C@H](CCC(=O)O)NC(=O)[C@H](CCC(=O)O)NC(C)=O)[C@@H](C)CC)C(=O)N[C@@H](CCC(=O)O)C(=O)N[C@@H](C)C(N)=O [Peptide 13, Ac-Glu-Glu-Glu-Ile-Tyr-Dap(NBD)-Glu-Ile-Glu-Ala] (Ac-EEEIY[Dap](NBD)EIEA-NH2)
fluorescence intensity when PTP1B is added after completion of the Src kinase-catalyzed reaction (PTP1B): reduced the fluorescence intensity to the starting value

Fluorescence Increase (GST-Lck-SH2; peptide 8 μM, Lck-SH2 0.2 μM, 15 nM Src): 1.07 fold change
Fluorescence Increase (GST-Lck-SH2; peptide 8 μM, Lck-SH2 2 μM, 15 nM Src): 1.70 fold change
Fluorescence Increase (GST-Lck-SH2; peptide 8 μM, Lck-SH2 4 μM, 15 nM Src): 2.32 fold change
Fluorescence Increase (GST-Lck-SH2; peptide 8 μM, Lck-SH2 8 μM, 15 nM Src): 4.31 fold change
Fluorescence Increase (GST-Lck-SH2; peptide 8 μM, Lck-SH2 12 μM, 15 nM Src): 5.34 fold change
Fluorescence Increase (GST-Lck-SH2; peptide 8 μM, Lck-SH2 16 μM, 15 nM Src): 6.20 fold change
Fluorescence Increase (GST-Lck-SH2; peptide 8 μM, Lck-SH2 20 μM, 15 nM Src): 6.85 fold change
Fluorescence Increase (GST-Lck-SH2; peptide 8 μM, Lck-SH2 26 μM, 15 nM Src): 7.32 fold change
Fluorescence Increase (GST-Lck-SH2; peptide 8 μM, Lck-SH2 32 μM, 15 nM Src): 7.20 fold change
Fold change in fluorescence intensity in the Src kinase-catalyzed phosphorylation (Src [2]): 7.2 fold
Km (Src [3]): 4.8 ± 0.8 µM
Vmax (Src [3]): 1.5 ± 0.1 µmol/min/mg
Molecule: Ac-Glu-Glu-Glu-Ile-Tyr-Gly-Glu-Ile-Dab(dapoxyl)-Ala (Ac-EEEIYGEI[Dab](dapoxyl)A-NH2; not fully specified; printed as Ac-Glu-Glu-Glu-Ile-Tyr-Gly-Glu-Ile-Dab(dapoxyl)-Ala) [Peptide 14]

Molecule: Ac-pTyr-Glu-Glu-Ile-Glu-amide (Ac-[pY]EEIE-NH2; SMILES CC[C@H](C)[C@H](NC(=O)[C@H](CCC(=O)O)NC(=O)[C@H](CCC(=O)O)NC(=O)[C@H](Cc1ccc(OP(=O)(O)O)cc1)NC(C)=O)C(=O)N[C@@H](CCC(=O)O)C(N)=O)
fluorescence change of the Src reaction in presence of known Lck SH2 domain ligand (Lck SH2 domain): no fluorescence change was observed
fluorescence change of the Src reaction in presence of known Lck SH2 domain ligand (Lck SH2 domain; listed as Ac-pTyr-Glu-Glu-Ile-Glu-OH): no fluorescence change

Fluorescence change (fold) (Src [1]; [4]): 1.06 fold
Molecule: BODIPY FL

Fluorescence change (fold) (Src [1]; [5]): 2.1 fold
Fluorescence change (fold) (Src [1]; fluorophore on Dap at position Y+3, λex 379 nm, λem 422 nm): 1.7 fold
Fluorescence change (fold) (Src [1]; [4]): 1.7 fold
Molecule: Cascade Blue ™

Fluorescence change (fold) (Src [1]; [5]): 2.7 fold
Fluorescence change (fold) (Src [1]; [4]): 1.45 fold
Molecule: Cascade Yellow (EE[Dab](Cascade Yellow)IYGEIEA)

Fluorescence change (fold) (Src [1]; [5]): 1.0 fold
Fluorescence change (fold) (Src [1]; [4]): 1.0 fold
Molecule: Dansyl

Molecule: NBD (Ac-EEEIY[Dap](NBD)EIEA-NH2; SMILES CC[C@H](C)[C@H](NC(=O)[C@H](CCC(=O)O)NC(=O)[C@H](CNc1ccc([N+](=O)[O-])c2nonc12)NC(=O)[C@H](Cc1ccc(O)cc1)NC(=O)[C@@H](NC(=O)[C@H](CCC(=O)O)NC(=O)[C@H](CCC(=O)O)NC(=O)[C@H](CCC(=O)O)NC(C)=O)[C@@H](C)CC)C(=O)N[C@@H](CCC(=O)O)C(=O)N[C@@H](C)C(N)=O)
Fluorescence change (fold) (Src [1]; [5]): 1.7 fold
Fluorescence change (fold) (Src [1]; [4]): 1.25 fold

Phosphorylation-induced fluorescence change (Src [1]): 2.7 fold
Molecule: Sensor 26: Cascade Yellow-containing sensor, fluorophore on Dab at Y−2, SEQ ID NO:15 (EE[Dab](Cascade Yellow)IYGEIEA)
